Results taken from publication PMC9683001.

System: AMV coat protein (CP) (Alfalfa mosaic virus)
Test: EMSA
Conditions: 10 mM Na-phosphate pH 7.0, 1 mM EDTA, 5 U human placental RNase inhibitor, 10 uL, 30 min at room temperature; RNA preheated 65 C 5 min; 1.2% agarose gel in TAE

Row | Substance | Kd [µM]
1 | 5'UTRΔ140 | 41.1
2 | 5'UTR-WT (AMV RNA3 5' UTR, plus strand) | 26.1
